Test results published in the supplement of paper PMC11865577.

Tests used:
Test in all cases: pull-down binding Z-score (relative to library population); higher = stronger binding
[1] = tested on: TO-N3-2 (biotin conjugate); conditions: RNA library: Library-2
In short: (§1)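 Cy5- or Cy3-end-labelled RNA library (1 μg) was heat-folded in phosphate/NaCl/KCl buffer and incubated 60 min at 25 °C with streptavidin beads carrying 100 pmol biotin-conjugated small molecule. After three washes, bound RNA was eluted in hot SDS and hybridised 20 h at 55.5 °C to a DNA barcode microarray. Binding was scored by subtracting a beads-only control, averaging barcoded replicate probes after dropping highest and lowest, and converting to a Z-score against library mean and standard deviation.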

[2] = tested on: TO-N3 (biotin conjugate); conditions: RNA library: Library-2
In short: as §1

[3] = tested on: TO-3-N3-2 (biotin conjugate); conditions: RNA library: Library-2
In short: as §1

[4] = tested on: G-clamp-N3 (biotin conjugate); conditions: RNA library: Library-1 (pre-miRNA loops + repeats)
In short: as §1

[5] = tested on: TO-3-N3 (biotin conjugate); conditions: RNA library: Library-2
In short: as §1

GCAGGCCGUGAACUCGUCGAGCUGCGCGUGCGGCCGGUGCUCA [hsa-mir-1199]
pull-down binding Z-score [1]: 2.02
pull-down binding Z-score [2]: 1.47
pull-down binding Z-score [3]: 0.103
pull-down binding Z-score [4]: 0.693
pull-down binding Z-score [5]: 0.55

GGGGUUUUUGCCUCCAACUGACUCC [hsa-mir-155]
pull-down binding Z-score [1]: -0.135
pull-down binding Z-score [2]: -0.292
pull-down binding Z-score [3]: -0.283
pull-down binding Z-score [4]: -0.504
pull-down binding Z-score [5]: -0.366

AUUGGCUUGGAUUCUGCAAAGCCU [hsa-mir-7151]
pull-down binding Z-score [1]: 1.03
pull-down binding Z-score [2]: 0.194
pull-down binding Z-score [3]: 0.281
pull-down binding Z-score [4]: 0.697
pull-down binding Z-score [5]: -0.259

GGCUUUGGCAUCUAUGAAAGCC [hsa-mir-4755]
pull-down binding Z-score [1]: -0.233
pull-down binding Z-score [2]: 0.507
pull-down binding Z-score [3]: -0.302
pull-down binding Z-score [4]: 0.33
pull-down binding Z-score [5]: 0.45

UUGUCGUUAAAAAUAGCAA [hsa-mir-548n]
pull-down binding Z-score [1]: -0.863
pull-down binding Z-score [2]: -0.847
pull-down binding Z-score [3]: -0.149
pull-down binding Z-score [4]: 0.889
pull-down binding Z-score [5]: -0.497

UUGACCAAUCAUCUUAUUGACUAGA [hsa-mir-6502]
pull-down binding Z-score [1]: -0.496
pull-down binding Z-score [2]: -0.471
pull-down binding Z-score [3]: -0.177
pull-down binding Z-score [4]: -1.52
pull-down binding Z-score [5]: -0.403

CCAAGUCUGACCACCUGAGGAAUGCCUGG [hsa-mir-1269a]
pull-down binding Z-score [1]: 0.719
pull-down binding Z-score [2]: -0.288
pull-down binding Z-score [3]: -0.335
pull-down binding Z-score [4]: -0.858
pull-down binding Z-score [5]: -0.498

GGGAGUGGUUCCAUCACGCCUCCUCAC [hsa-mir-483]
pull-down binding Z-score [1]: 0.658
pull-down binding Z-score [2]: 0.311
pull-down binding Z-score [3]: -0.147
pull-down binding Z-score [4]: -0.668
pull-down binding Z-score [5]: -0.089

AUGUUUAUUGUAAAGAUACUUU [hsa-mir-1305]
pull-down binding Z-score [1]: -0.121
pull-down binding Z-score [2]: -0.517
pull-down binding Z-score [3]: -0.418
pull-down binding Z-score [4]: -0.249
pull-down binding Z-score [5]: -0.643

UAUUUUGUUAUUCUGGUCACAGAAUGACCUAGUA [hsa-mir-630]
pull-down binding Z-score [1]: -1.11
pull-down binding Z-score [2]: -0.308
pull-down binding Z-score [3]: -0.134
pull-down binding Z-score [4]: -1.22
pull-down binding Z-score [5]: 0.141

GCUCCCAACCAACCACUUCCACAUGUUUUGCUGGU [hsa-mir-4451]
pull-down binding Z-score [1]: 0.308
pull-down binding Z-score [2]: 0.244
pull-down binding Z-score [3]: 0.239
pull-down binding Z-score [4]: -1.34
pull-down binding Z-score [5]: 0.136

CCUCUGUCCUCUGUCCUCUACCUAUAGAGG [hsa-mir-641]
pull-down binding Z-score [1]: 0.141
pull-down binding Z-score [2]: 0.118
pull-down binding Z-score [3]: -0.229
pull-down binding Z-score [4]: 0.349
pull-down binding Z-score [5]: 0.224

GUCAGGUGAUGGUGAUAAGGUCAAGGCCUG [hsa-mir-6853]
pull-down binding Z-score [1]: 1.03
pull-down binding Z-score [2]: 0.388
pull-down binding Z-score [3]: -0.0266
pull-down binding Z-score [4]: 0.547
pull-down binding Z-score [5]: -0.0611

CCCAUAAGGGUCGAAUGGG [hsa-mir-4713]
pull-down binding Z-score [1]: 0.0587
pull-down binding Z-score [2]: 0.272
pull-down binding Z-score [3]: -0.0623
pull-down binding Z-score [4]: -0.205
pull-down binding Z-score [5]: 0.401

ACGAUAUAUAUACUGCCCUGCUUUUAUACAUACAUACAUACAUACCUAUAUCGU [hsa-mir-4536-1]
pull-down binding Z-score [1]: -0.809
pull-down binding Z-score [2]: -0.734
pull-down binding Z-score [3]: -0.00614
pull-down binding Z-score [4]: -0.956
pull-down binding Z-score [5]: -0.603

CGCGGGCGGGUCCCAGGCUGGGCCCCUCGGAGGCCGGGUGCUCACUGCCCCGUCCCGG [hsa-mir-6789]
pull-down binding Z-score [1]: 4.13
pull-down binding Z-score [2]: 1.7
pull-down binding Z-score [3]: -0.0304
pull-down binding Z-score [4]: 0.322
pull-down binding Z-score [5]: 0.75

CAGUCCUGAGAUGCAGGGACUG [hsa-mir-4799]
pull-down binding Z-score [1]: -0.727
pull-down binding Z-score [2]: -0.644
pull-down binding Z-score [3]: -0.531
pull-down binding Z-score [4]: 0.166
pull-down binding Z-score [5]: -0.626

UGCUUUUUGUUUCUAACAAAGCA [hsa-mir-4679-2]
pull-down binding Z-score [1]: -1.25
pull-down binding Z-score [2]: 0.0252
pull-down binding Z-score [3]: -0.407
pull-down binding Z-score [4]: -0.591
pull-down binding Z-score [5]: 0.272

GGUAGGUUACGUCAUGCUGUUCUACC [hsa-mir-140]
pull-down binding Z-score [1]: 0.193
pull-down binding Z-score [2]: -0.0663
pull-down binding Z-score [3]: -0.139
pull-down binding Z-score [4]: 0.599
pull-down binding Z-score [5]: -0.251

UGCUUCAGUUUCACUCCAAGCA [hsa-mir-4771-2_4771-1]
pull-down binding Z-score [1]: -0.141
pull-down binding Z-score [2]: -0.204
pull-down binding Z-score [3]: -0.126
pull-down binding Z-score [4]: -0.932
pull-down binding Z-score [5]: -0.0351

AAAAUUACUUUUGGUAAAUACAGUUUU [hsa-mir-559]
pull-down binding Z-score [1]: -1.04
pull-down binding Z-score [2]: -0.344
pull-down binding Z-score [3]: 0.00825
pull-down binding Z-score [4]: -0.546
pull-down binding Z-score [5]: -0.101

AUAGUUUUAGGGUCACACCCACCACUGGGAGAUAACUAU [hsa-let-7a-1]
pull-down binding Z-score [1]: -0.0919
pull-down binding Z-score [2]: 0.607
pull-down binding Z-score [3]: 0.205
pull-down binding Z-score [4]: 0.294
pull-down binding Z-score [5]: 0.853

UUUGUACGGCACUGUGGCCACGUCCAAA [hsa-mir-497]
pull-down binding Z-score [1]: 0.0542
pull-down binding Z-score [2]: -0.0106
pull-down binding Z-score [3]: -0.306
pull-down binding Z-score [4]: -0.884
pull-down binding Z-score [5]: -0.121

UGUUGGUUGAAGAUGCCUUUCAACA [hsa-mir-552]
pull-down binding Z-score [1]: -0.598
pull-down binding Z-score [2]: -0.937
pull-down binding Z-score [3]: -0.396
pull-down binding Z-score [4]: 0.0946
pull-down binding Z-score [5]: -0.807

UCCUCCACAAAUGCGUGUGGAGGA [hsa-mir-4633]
pull-down binding Z-score [1]: -1.6
pull-down binding Z-score [2]: -1.34
pull-down binding Z-score [3]: -0.698
pull-down binding Z-score [4]: 0.135
pull-down binding Z-score [5]: -0.89

AGGGCUGGGAUUACUAAAGCCCU [hsa-mir-1266]
pull-down binding Z-score [1]: -0.335
pull-down binding Z-score [2]: -0.158
pull-down binding Z-score [3]: -0.105
pull-down binding Z-score [4]: 1.24
pull-down binding Z-score [5]: -0.0287

GUGGAGUCGGGUCAGACUUCAA [hsa-mir-378c]
pull-down binding Z-score [1]: 0.384
pull-down binding Z-score [2]: -0.0868
pull-down binding Z-score [3]: -0.477
pull-down binding Z-score [4]: -1.13
pull-down binding Z-score [5]: -0.461

ACCUUCCAAGGCUCAGAAGGU [hsa-mir-4650-1_4650-2]
pull-down binding Z-score [1]: -0.0713
pull-down binding Z-score [2]: -0.702
pull-down binding Z-score [3]: -0.432
pull-down binding Z-score [4]: -0.155
pull-down binding Z-score [5]: -0.702

CCUGAUGAAUCUGAGGCCAGG [hsa-mir-577]
pull-down binding Z-score [1]: 0.326
pull-down binding Z-score [2]: -0.18
pull-down binding Z-score [3]: 0.118
pull-down binding Z-score [4]: 1.14
pull-down binding Z-score [5]: -0.271

CCGUGCCCUGGCCACUCAUUCGG [hsa-mir-6741]
pull-down binding Z-score [1]: 1.1
pull-down binding Z-score [2]: 0.45
pull-down binding Z-score [3]: 0.133
pull-down binding Z-score [4]: -0.0927
pull-down binding Z-score [5]: 0.294

GUGCAGCUUGUACCUGCAC [hsa-mir-1293]
pull-down binding Z-score [1]: -0.592
pull-down binding Z-score [2]: -0.0262
pull-down binding Z-score [3]: -0.574
pull-down binding Z-score [4]: -0.00619
pull-down binding Z-score [5]: -0.154

GUGAGCUGGAAAUGGGGUGCUAC [hsa-mir-598]
pull-down binding Z-score [1]: 0.962
pull-down binding Z-score [2]: 1.5
pull-down binding Z-score [3]: 0.651
pull-down binding Z-score [4]: 1.37
pull-down binding Z-score [5]: 1.46

UUUUGCCAUUACUUUCAAUGGCAAAA [hsa-mir-548aa-2]
pull-down binding Z-score [1]: -1.08
pull-down binding Z-score [2]: -0.176
pull-down binding Z-score [3]: -0.23
pull-down binding Z-score [4]: -0.284
pull-down binding Z-score [5]: 0.127

GGGACGUGUGAUGCUGUGCUUCCU [hsa-mir-3689f]
pull-down binding Z-score [1]: 0.502
pull-down binding Z-score [2]: -0.185
pull-down binding Z-score [3]: -0.0333
pull-down binding Z-score [4]: -0.338
pull-down binding Z-score [5]: -0.469

GCCAGCAACCUGAUUACCCCUCUUUGGC [hsa-mir-6851]
pull-down binding Z-score [1]: 0.533
pull-down binding Z-score [2]: -0.552
pull-down binding Z-score [3]: -0.495
pull-down binding Z-score [4]: -0.819
pull-down binding Z-score [5]: -0.53

UGCCUACUACUGAUGACAUACAAUGUAAGUGCUCAUUUAGGCG [hsa-mir-5696]
pull-down binding Z-score [1]: -0.201
pull-down binding Z-score [2]: -0.71
pull-down binding Z-score [3]: -0.289
pull-down binding Z-score [4]: -0.861
pull-down binding Z-score [5]: -0.702
